The values that follow come from publication PMC4325132 (FEBS Open Bio, 2015).

The target in experiment [1] is mouse cardiac TnI K118C mutation (mouse, UniProt P48787 1-211, K118C). The experiment can be described thus: ELISA. Background: An ELISA detects its analyte on a solid surface through an enzyme-linked reagent.
The target of experiment [2] is mouse cardiac TnI A117G mutation (mouse, UniProt P48787 1-211, A117G). Description: ELISA.
Sequence of mouse cardiac TnI A117G mutation (P48787 whole entry A117G): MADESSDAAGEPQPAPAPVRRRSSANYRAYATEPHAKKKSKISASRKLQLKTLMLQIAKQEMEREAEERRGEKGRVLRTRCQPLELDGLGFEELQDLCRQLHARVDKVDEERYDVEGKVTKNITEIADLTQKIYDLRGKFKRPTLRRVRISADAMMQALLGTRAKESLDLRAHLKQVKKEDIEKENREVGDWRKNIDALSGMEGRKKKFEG

Sequence of mouse cardiac TnI K118C mutation (P48787 whole entry K118C): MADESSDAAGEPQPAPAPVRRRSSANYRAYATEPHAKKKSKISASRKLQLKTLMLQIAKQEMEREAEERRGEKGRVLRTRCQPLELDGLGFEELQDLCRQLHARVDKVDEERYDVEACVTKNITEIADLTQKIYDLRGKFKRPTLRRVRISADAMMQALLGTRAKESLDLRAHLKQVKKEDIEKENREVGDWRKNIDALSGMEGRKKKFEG

B1: Chicken fast TnC (natural protein)
chain: not shown
For the molecule B1, the binding result in experiment [1] and in experiment [2] was “binds” in each case.
